PMC8347620, “Arabidopsis G-Protein β Subunit AGB1 Negatively Regulates DNA Binding of MYB62, a Suppressor in the Gibberellin Pathway”

Biological target: T1, MBP-MYB62 (Arabidopsis thaliana, UniProt Q9C9G7 1-286)
T1 sequence: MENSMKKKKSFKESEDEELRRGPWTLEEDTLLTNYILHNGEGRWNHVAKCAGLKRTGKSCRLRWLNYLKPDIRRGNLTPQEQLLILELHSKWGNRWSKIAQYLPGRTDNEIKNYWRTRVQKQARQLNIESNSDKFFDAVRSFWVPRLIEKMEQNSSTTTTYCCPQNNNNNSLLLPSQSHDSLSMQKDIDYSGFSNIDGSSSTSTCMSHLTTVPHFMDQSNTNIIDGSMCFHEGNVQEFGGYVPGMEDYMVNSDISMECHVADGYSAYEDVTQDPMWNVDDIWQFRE
Test: EMSA; EMSA: 2.5% glycerol, 50 mM KCl, 5 mM MgCl2, 10 mM EDTA, 30 min, room temperature; pH not stated
Conditions: protein: recombinant; tags: MBP (pMAL-c2x); label: biotin on both strands (BIO printed before each oligo); blunt

B1: ProGA2ox7 probe (MYB element) (dsDNA)
DNA 1: AAGCCCTTGGTTGGGGATGG
DNA 2: CCATCCCCAACCAAGGGCTT
B1: binds.
